This is an account of results in patent US7018812 (DUKE UNIVERSITY, dated 2006).

The target of experiment [1] is T1, V2R-β2AR chimera (human).
T1 construct: Whole receptor on HEK-293 cells; also called V2-β2AR; V2R-p2AR
T1 chain: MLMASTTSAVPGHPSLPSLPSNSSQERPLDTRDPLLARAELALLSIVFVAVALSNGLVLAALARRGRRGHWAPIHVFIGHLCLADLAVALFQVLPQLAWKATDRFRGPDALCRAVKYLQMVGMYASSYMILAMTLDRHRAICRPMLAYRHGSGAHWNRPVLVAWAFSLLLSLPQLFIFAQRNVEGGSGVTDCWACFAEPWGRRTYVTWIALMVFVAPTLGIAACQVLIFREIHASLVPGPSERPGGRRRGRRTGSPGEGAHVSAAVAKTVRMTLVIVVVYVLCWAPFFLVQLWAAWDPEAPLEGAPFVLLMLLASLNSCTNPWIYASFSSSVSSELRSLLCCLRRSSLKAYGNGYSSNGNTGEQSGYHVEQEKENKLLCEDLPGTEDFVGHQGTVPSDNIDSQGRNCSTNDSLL
As to the kind of experiment: cell-based or functional assay.

Experiment [2] has as its target wild-type V2R receptor (vasopressin V2 receptor), HA-tagged (human) (UniProt P30518). As to the kind of experiment: cell-based or functional assay.
The target in experiment [3] is wild-type β2AR receptor (β2-adrenergic receptor), HA-tagged (Homo sapiens (Human)) (UniProt P07550). Nature of the experiment: cell-based or functional assay.
In experiment [4] the target is β2AR-V2R chimera (Homo sapiens (Human)) (UniProt P07550). As to the kind of experiment: cell-based or functional assay.
Experiment [5] has as its target T1, V2R-β2AR chimera. Nature of the experiment: [3H]AVP binding to membrane proteins of transfected HEK-293 cells; affinity not given. As to the method:
Membrane proteins (10 μg) from transfected HEK-293 cells expressing the V2R and V2R-β_2AR chimera were incubated in PBS containing 2% BSA at room temperature with increasing concentrations of [^3H] […] Binding was terminated by rapid filtration and consecutive washes with ice-cold wash buffer ([…], 50 mM Tris-HCl, pH=7.2).

Where [6] appears, read: scale: % of Vmax measured under Naive conditions.

Bridges are numbered along the chain shown (N, C = ends). Where no end group is shown, it is not given here.

Regarding β-arrestin, the internalized receptor recycled back to the plasma membrane 60 min after agonist removal (flow cytometry) in the experiment with V2R-β2AR chimera [1] was determined as 89%; in experiment [2], 23%; in experiment [3], 65%; in experiment [4] it was 11%. The reduction in receptor phosphorylation 60 min after agonist removal (32P, immunoprecipitation) amounted to 67 % reduction with V2R-β2AR chimera [1], 3 % decrease in experiment [2] and 48 % reduction in experiment [3]. Further, the results for the recovery of Vmax of adenylyl cyclase activity one hour after agonist removal (resensitization) (in the experiment with V2R-β2AR chimera [1] (setting [6]); in experiment [3] (setting [6])) were 102 and 100, respectively. The figures for the impairment of recovery of Vmax of adenylyl cyclase activity one hour after agonist removal (resensitization) in experiment [2] and in experiment [4] were 54% and 66%, respectively. This molecule yielded a change in receptor phosphorylation 60 min after agonist removal (32P, immunoprecipitation) in experiment [4] of 12 % increase.

B1: arginine vasopressin (peptide, UniProt P01185 20-28, looked up)
peptide: CYFQNCPRG-NH2
modifications: disulfide 1-6 (inferred); ends not checked; also: tritium label ([3H]AVP), place not given here
notes: mature; only the hormone peptide stood in the assay; also called AVP; [3H]AVP
With B1, in the experiment with V2R-β2AR chimera [5], the binding result was “binds”.
